For this assay, the target named is T1, α2,6-sialylated recombinant human IgG1 Fc (sFc), prepared by papain cleavage of full-length IDEC-114 antibody … (human, UniProt P0DOX5 227-449 = IgG part, limits assumed, N-linked glycan at Asn297 with terminal α2,6-linked sialic acid (in vitro galactosylation and sialylation)).
T1 construct: also called α2,6-sFc; α2,6 sFc
The experiment in a line: SPR steady-state affinity, immobilized DC-SIGN ECD.

Experimental: To determine the interaction between various recombinant Fc preparations to soluble hDC-SIGN or hFcγRs, steady-state affinity measurements were recorded on a Biacore T100 sensor. Receptors, diluted to 20-50 μg/mL in NaOAc pH 5.0, were immobilized on CMS chips at high density (2000 RU) by standard amine coupling. For hDC-SIGN interactions, injections were performed at a flow rate of 20 μL/min with commercially available HBS-P+ buffer adjusted to pH 9.0 and supplemented with 2 mM CaCl₂ and 500 mM NaCl. For hFcγRs interactions, injections were performed at a flow rate of 20 μL/min with commercially available HBS-EP+ buffer. Surfaces were regenerated with a short pulse of 50 mM NaOH. Kd values were calculated after subtraction of background binding to a control flow cell using Biacore Evaluation software.

B1: soluble human DC-SIGN extracellular domain with N-terminal strep tag (receptor, UniProt Q9NNX6 59-404, looked up)
chain: QVSKVPSSISQEQSRQDAIYQNLTQLKAAVGELSEKSKLQEIYQELTQLKAAVGELPEKSKLQEIYQELTRLKAAVGELPEKSKLQEIYQELTWLKAAVGELPEKSKMQEIYQELTRLKAAVGELPEKSKQQEIYQELTRLKAAVGELPEKSKQQEIYQELTRLKAAVGELPEKSKQQEIYQELTQLKAAVERLCHPCPWEWTFFQGNCYFMSNSQRNWHDSITACKEVGAQLVVIKSAEEQNFLQLQSSRSNRFTWMGLSDLNQEGTWQWVDGSPLLPSFKQYWNRGEPNNVGEEDCAEFSGNGWNDDKCNLAKFWICKKSAASCSRDEEQFLSPAPATPNPPPA
notes: extracellular domain; also called DC-SIGN ECD; soluble hDC-SIGN; not shown: N-terminal strep tag
As for B1, the Kd (as a rule, the concentration at which binding is half-saturated) was about 1300 nM.

For the origin of these results see patent publication US20140377280A1 (ROCKEFELLER UNIVERSITY, published 2014).
